Assay: yeast display, Sf9 membrane polyspecificity reagent, FACS + sequencing; frameworks hold sequencing errors
Outline: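 Nanobodies from a synthetic yeast display library (Saccharomyces cerevisiae BJ5465), induced 36–48 hours with galactose, were stained 1 hour at 4 °C with 10% biotinylated, detergent-solubilized Sf9 membrane reagent, enriched on streptavidin microbeads, then FACS-sorted. Anti-HA (expression) and streptavidin (reagent binding) fluorescence set low and high (top ~1%) gates. Polyreactivity labels come from the gate of origin. Genes were colony-PCR amplified, MiSeq 2 × 250 sequenced and filtered by CDR length.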

Sequence | polyreactivity (PSR sort gate)
QVQLVESGGGLVQAGGSLRLSCAAYGRTLYYNTMGWYRQAPGKERELVASIRWDGGRTYYADSVKGRFTISRDNAKNTVYLQLNSLKPEDTAVYYCAKDGGYYYGTYAYDGCFDYWGQGTQVTVSS | low polyreactivity
QVQLVESGGGLVQAGGSLRLSCAASGRTFGQNTMGWYRQAPGKERELVATITSDGGDTYYADSVKGRFTISRDNAKNTVYLQMNSLKPEDTAVYYCKADYAGPKYVGYTFRSFTMDYWGQGTQVTVSS | low polyreactivity
QVQLVESGGGLVQAGGSLRFSCAASRFNFYDYVMGWYRQAPGKYRELVAAISSNGGSTYYADSVKGRFTISRDNAKNTVYFQMYSLKPEDTAVYYCAVTENSKSNKIRPDQGDYWGQGTQVTVSS | high polyreactivity
QVHLVESGGGLVQAGGSLRLSCAASGRTLGGNAMGWYRQAPGKERELDAAITNSASTYADSVKGRFTISRDNAKNTVYLQMNSLKPEDTAVYYCNAPDPSDQHGDYWGQGTQVTVSS | low polyreactivity
QVQLVESGGRLVQAGGSLRLSCAASGFTFWNYAMGWYRQAPGKERELVAAISRSGTSTYYADSVKGRFTISRDYAKNTVYLQMNSLKPEDTAVYYCNVLRVKSITYLMDYWGQGTQVTVSS | high polyreactivity
QDQLVDSGGGLVQAGGSLRLSCAASGRTFSPNTMGWYRQAPGKEREFVAAITASGDSTYYADSVKGRFTISRDNEKNTVYLQMNSLKPEDTAVYYCATDSNWYWGFNYWGQGTQVTVSS | low polyreactivity
QVQLVESGGGLVQAGGSLRLSCAASGFIFKTYAMGWYRQAPGKERELVARISKSSGNTYYADSVKGRFTISRDNAKNTVYLQMNSLKPEDTAVYYCNRRHTSKNAYTSPSEYDYWGQGTQVTVSS | low polyreactivity
QVQLVESGGGLVQAGGSLRLSCAASGRISKYNAMGWYRQAPGKERELVAAINQRGTSTYYADSVKGRFTISRDNEMNTVYLQMNSLKPEDTAVYYCATTGYRFYLMDYWGQGTQVTVSS | low polyreactivity
QVQLVESGGGLVQAGGSLRLSCAASGITFGWYAMGWYRQAPGKERELVAAISWSGGTTYYADSVKGRFTISRDNAKNTVYLQMNSLKPEDTAVYYCAATWYYPTVYAGNYWGQGTQVTVSS | high polyreactivity
QVQLVESGGGLVQAGGSLRLSCAASGRIFDTYAMGWYSQAPGKERELVASISIDGSTYYADSVKGRFTISRDNAKNTVYLQMNSLKPEDTAVYYCNADGRYYTVRFEYWGQGTQVTVSS | low polyreactivity
QVQLVESGGGLVQAGGSLRLSCAASGFIFVYYTMGWYRQAPGNERELVAAISVSGGRTYYADSVKGRFTISRDNAKNTVYLQMNSLKPEDTAVYYCNARNGYGIGYWGQGTQVTVSS | high polyreactivity
QVQLVESGGGLVQAGGSLRLSCAASGSIFGGYTMGWYRQAPGKERELVAAISARGGNTYYADSVKGRFTISRDNAKNTVYLQMNSLKPEDTAVYYCAKVRYTQSYRGYGYWGQGTQVTVSS | high polyreactivity
QVQLVESGGGLVQAGGSLRLSCAASGFIFSYYAMGWYRQAPGTERELVAVITFSVGSPYYADSVKGRFTISRDNAQNTVYLLMNSLKPEDTAVYYCAARSYACAKRAYYYWGQGTQVTVSS | high polyreactivity
QVQLVESGGGLVQAGGSLRLSCAASGFIFVYYAMVWYRQAPGKERELVAAITLRGGSTNYADSVKGRFTISRDNAKNTVYLQMNSRKPEDTAVYYCAAYSVWGGSYLALDYWGQGTQVTVSS | low polyreactivity
QVQLVESGGGLVQAGGSLRLSCAASGRIFTPYAMGWYRQAPGKERELVAVIRDGSTYYADSVKGRFTISRDNAKNTVYIQMNSLKPEDTAVYYCRYDIWVWWSGAYDYWGQGTQVTVSS | low polyreactivity
QVQLVESGGGLVQAGGSLRLSCAASGFIFVAYAMGWYRQAPGKERELVATIDSSGGTTYYADSVKGRFTISRDNAKNTVYLQMNSLKPEDTAVYYCNAPIYPYREFGRDYWGQGTQVTVSS | low polyreactivity
QVQLVESGGGLVQAGGSLRLSCAASGSTFVQNTMGWYRQAPGKERELVAAITRGGSTSYADSVKGRFTISRDNAKNTVYLQMNSLKPEDTAVYYCNAKSRSPTYRYRSWPYNYWGQGTQVTVSS | high polyreactivity
QVQLQESGGGLVQAGGSLRLSCAASGYISHADEMGWYRQAPGKEHELVASISNGGSTNYADSVKGRFTISRDNAKNPVNLQMNSLKSEDTAVYYCAALTGQVAIHYYWGQGTQVTVSS | low polyreactivity
QVKLVESGGGLVQAGGSLRLSCPASGITFVYYAMGGYRQAPGKERELVAAISSAGSSTYYADSVKGRFTISRDNAKNTVYLQMNSLKPEDTAVYYCAATYYVPRLQWMDYWGQGTQVTVSS | low polyreactivity
QVQLVESGGGLVQAGGSLRLSCAASGSMFAAYAMGWYRQAPGKARELVAAISSGDGTYYADSVKGRFTISRDNAKNTVYLQRNSLKPEDTAVYYCNAYVSQRYRGSRYYYWGQGTQVTLSS | high polyreactivity
QVQLVESGGGLVQAGGSLRLSCAASGRIFYPYAMGWYRQAPGKERELVAAIRGGDSTNYADSVKGRFTISRDNAKNTVYLQMNSLKPEDTAVYYCAAVLRYVVRPYSYWSGGYDYWGQGTQVTVSS | high polyreactivity

From the nanobody polyreactivity screen of Harvey et al. (2022)
